Data reported in patent US20230331828A1 (published 2023).
Residue numbers refer to the chain shown, from its start.

B1: h2731 (antibody, V domains shown)
VH: EVQLLESGGGLVQPGGSLRLSCAASGFTFSNYGMSWVRQAPGKGLEWVASIRSGSGRTYYSDNVKGRFTISRDNSKNTLYLQMNSLRAEDTAVYYCVRYDHYSGSSDYWGQGTLVTVSS
VL: DVVMTQSPLSLPVTLGEPASISCKSSQSLLDYDGKTYLNWLLQKPGQSPQRLIYRVTNRDTGVPDRFSGSGSGTDFTLKISRVEAEDVGVYYCWQGTHFPRSFGQGTKVEIK
B2: h2831 (antibody, V domains shown)
VH: B1 VH with Y32F, I51V, S105T
VL: B1 VL
B3: h2726 (antibody, V domains shown)
VH: B1 VH
VL: B1 VL with L15P, R55K, T57S, T61S, S102T
B4: h2931 (antibody, V domains shown)
VH: B1 VH with Y32F, I51V, S103T, S105T
VL: B1 VL

Experiments:
[1] = target: aggregated Aβ42 (heterogeneous Aβ 42 aggregate mixture); assay: competition ELISA; FIG 20A
Sequence of aggregated Aβ42 (heterogeneous Aβ 42 aggregate mixture) (P05067 672-713): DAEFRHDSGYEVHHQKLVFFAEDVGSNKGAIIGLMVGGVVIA

[2] = target: aggregated Aβ42 (heterogeneous Aβ 42 aggregate mixture); assay: competition ELISA; FIG 5A; competition with HBP biotin
[3] = target: aggregated Aβ42 (heterogeneous Aβ 42 aggregate mixture); assay: competition ELISA; FIG 20B
[4] = target: aggregated Aβ42 (heterogeneous Aβ 42 aggregate mixture); assay: competition ELISA; FIG 5B; competition with HBP biotin

Binder | IC50 [1] | IC50 [2] | IC50 [3] | IC50 [4]
B1 | 5 µg/mL | 4.76 µg/mL |  | 
B2 |  |  | 9.9 µg/mL | 9.02 µg/mL
B3 |  |  | 9 µg/mL | 8.41 µg/mL
B4 |  | 6.27 µg/mL |  | 
